Results from patent US20240261333A1 (published 2024).

Legend:
[1] = target: RPL37A (UniProt P61513 1-92); experiment: co-IP, anti-FLAG, N-FLAG B3GNT2 cell lysate, mass spectrometry
Description: (§1) Cells were plated in 10-cm cell culture dishes and grown to 60-80% confluency. For each condition, two biological replicates were harvested for co-IP. Cells were washed with PBS and 4 mL of lysis buffer (20 mM HEPES, 1% Triton X-100, 150 mM NaCl, 1 mM EDTA, and 10% glycerol) containing protease inhibitor cocktail was added. Cells were scraped and lysate was incubated at 4° C. under rotary agitation for 1 h. Lysate was centrifuged at 14,000×g for 10 min at 4° C. Supernatant was transferred to a new tube and an aliquot was taken as the input. […] For Western blots, 10 μg/mL Chicken Anti-FLAG (Aves labs ET-DY100) and IgY control (R&D Systems AB-101-C) antibodies were biotinylated (Thermo Fisher Scientific 90407) and added to the respective conditions. Lysates with antibodies were incubated at 4° C. under rotary agitation overnight. For each mL of lysate, 50 μL of Pierce Protein A/G Magnetic Beads (Mass spectrometry; Thermo Fisher Scientific 88803) or Pierce Streptavidin Magnetic Beads (Western blot; Thermo Fisher Scientific 88817) was washed twice with lysis buffer. Lysates with antibodies were added to the beads and incubated at 4° C. under rotary agitation for 4 h. Beads were washed with lysis buffer 3 times and resuspended in lysis buffer for storage.
(§2) Magnetic beads were resuspended in 100 mM Tris pH 7.8, reduced, alkylated and digested with trypsin at 37° ° C. overnight. This solution was subjected to solid phase extraction to concentrate the peptides and remove unwanted reagents followed by injection onto a Shimadzu HPLC with fraction collector. Eight fractions were collected and after concentration were injected on a Waters NanoAcquity HPLC equipped with a self-packed Aeris 3 μm C18 analytical column 0.075 mm by 20 cm, (Phenomenex). Peptides were eluted using standard reverse-phase gradients. The effluent from the column was analyzed using a Thermo Orbitrap Elite mass spectrometer (nanospray configuration) operated in a data dependent manner for 54 minutes. The resulting fragmentation spectra were correlated against the known database using Proteome Discover 1.4 (Thermo Fisher Scientific).

[2] = target: RPS2 (UniProt P15880 2-293); experiment: as above
Description: as §1, §2

[3] = target: RPS18 (UniProt P62269 2-152); experiment: as above
Description: as §1, §2

[4] = target: T1, SRSF3 (UniProt P84103 1-164); experiment: as above
T1 construct: also called NP_003008.1
T1 sequence (looked up): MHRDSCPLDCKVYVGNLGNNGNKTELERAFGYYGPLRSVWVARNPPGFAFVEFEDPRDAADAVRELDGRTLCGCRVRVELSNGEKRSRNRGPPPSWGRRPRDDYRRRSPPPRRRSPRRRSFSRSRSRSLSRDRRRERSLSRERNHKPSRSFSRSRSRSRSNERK
Description: as §1, §2

[5] = target: T2, TNKS1BP1 (UniProt Q9C0C2 1-1729); experiment: as above
T2 construct: also called NP_203754.2
T2 sequence (Q9C0C2 whole entry): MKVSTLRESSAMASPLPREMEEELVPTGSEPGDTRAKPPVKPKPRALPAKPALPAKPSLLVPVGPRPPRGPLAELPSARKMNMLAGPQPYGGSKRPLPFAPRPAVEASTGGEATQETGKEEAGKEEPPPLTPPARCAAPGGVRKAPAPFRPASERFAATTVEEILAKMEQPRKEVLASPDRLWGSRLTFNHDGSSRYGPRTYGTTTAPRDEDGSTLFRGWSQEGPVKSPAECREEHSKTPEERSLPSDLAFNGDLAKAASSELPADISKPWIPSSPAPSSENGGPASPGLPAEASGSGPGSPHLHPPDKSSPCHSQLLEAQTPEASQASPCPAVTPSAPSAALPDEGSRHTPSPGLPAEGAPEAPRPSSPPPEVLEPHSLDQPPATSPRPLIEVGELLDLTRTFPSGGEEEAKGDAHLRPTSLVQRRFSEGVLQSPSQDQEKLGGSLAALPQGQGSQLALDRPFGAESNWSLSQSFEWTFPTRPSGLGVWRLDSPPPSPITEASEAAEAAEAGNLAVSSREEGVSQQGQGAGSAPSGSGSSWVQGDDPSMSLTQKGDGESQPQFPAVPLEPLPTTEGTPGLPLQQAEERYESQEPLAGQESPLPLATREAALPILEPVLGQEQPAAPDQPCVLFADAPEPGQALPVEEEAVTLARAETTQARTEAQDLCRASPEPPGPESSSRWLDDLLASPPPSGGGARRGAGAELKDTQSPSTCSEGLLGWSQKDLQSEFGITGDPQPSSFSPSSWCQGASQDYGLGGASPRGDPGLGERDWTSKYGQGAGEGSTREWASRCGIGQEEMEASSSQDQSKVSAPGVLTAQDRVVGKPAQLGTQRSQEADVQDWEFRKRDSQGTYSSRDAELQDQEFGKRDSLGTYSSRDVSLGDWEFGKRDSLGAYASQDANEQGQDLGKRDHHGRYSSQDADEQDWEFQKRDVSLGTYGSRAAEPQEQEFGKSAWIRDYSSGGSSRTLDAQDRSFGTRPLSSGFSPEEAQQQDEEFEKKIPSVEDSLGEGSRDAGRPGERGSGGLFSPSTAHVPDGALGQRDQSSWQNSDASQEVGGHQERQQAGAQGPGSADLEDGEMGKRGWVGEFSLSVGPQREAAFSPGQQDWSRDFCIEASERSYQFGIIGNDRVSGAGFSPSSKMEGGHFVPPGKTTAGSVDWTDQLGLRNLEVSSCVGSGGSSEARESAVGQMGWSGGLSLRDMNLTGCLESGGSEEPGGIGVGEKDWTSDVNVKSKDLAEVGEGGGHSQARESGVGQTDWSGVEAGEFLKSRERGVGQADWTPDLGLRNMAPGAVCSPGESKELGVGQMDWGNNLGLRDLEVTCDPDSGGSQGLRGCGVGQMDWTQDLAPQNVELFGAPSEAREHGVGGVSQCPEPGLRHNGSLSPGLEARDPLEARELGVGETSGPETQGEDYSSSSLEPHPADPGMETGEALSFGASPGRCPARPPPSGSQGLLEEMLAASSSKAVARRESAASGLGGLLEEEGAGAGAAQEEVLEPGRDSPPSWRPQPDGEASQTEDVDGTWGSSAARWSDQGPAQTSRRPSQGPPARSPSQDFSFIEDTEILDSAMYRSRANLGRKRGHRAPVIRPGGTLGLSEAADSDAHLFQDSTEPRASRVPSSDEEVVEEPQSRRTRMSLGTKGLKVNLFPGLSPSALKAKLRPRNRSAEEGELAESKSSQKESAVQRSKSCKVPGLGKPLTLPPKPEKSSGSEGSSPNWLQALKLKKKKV
Description: as §1, §2

[6] = target: T3, DDX20 (UniProt Q9UHI6 1-824); experiment: as above
T3 construct: also called NP_009135.4
T3 sequence (looked up): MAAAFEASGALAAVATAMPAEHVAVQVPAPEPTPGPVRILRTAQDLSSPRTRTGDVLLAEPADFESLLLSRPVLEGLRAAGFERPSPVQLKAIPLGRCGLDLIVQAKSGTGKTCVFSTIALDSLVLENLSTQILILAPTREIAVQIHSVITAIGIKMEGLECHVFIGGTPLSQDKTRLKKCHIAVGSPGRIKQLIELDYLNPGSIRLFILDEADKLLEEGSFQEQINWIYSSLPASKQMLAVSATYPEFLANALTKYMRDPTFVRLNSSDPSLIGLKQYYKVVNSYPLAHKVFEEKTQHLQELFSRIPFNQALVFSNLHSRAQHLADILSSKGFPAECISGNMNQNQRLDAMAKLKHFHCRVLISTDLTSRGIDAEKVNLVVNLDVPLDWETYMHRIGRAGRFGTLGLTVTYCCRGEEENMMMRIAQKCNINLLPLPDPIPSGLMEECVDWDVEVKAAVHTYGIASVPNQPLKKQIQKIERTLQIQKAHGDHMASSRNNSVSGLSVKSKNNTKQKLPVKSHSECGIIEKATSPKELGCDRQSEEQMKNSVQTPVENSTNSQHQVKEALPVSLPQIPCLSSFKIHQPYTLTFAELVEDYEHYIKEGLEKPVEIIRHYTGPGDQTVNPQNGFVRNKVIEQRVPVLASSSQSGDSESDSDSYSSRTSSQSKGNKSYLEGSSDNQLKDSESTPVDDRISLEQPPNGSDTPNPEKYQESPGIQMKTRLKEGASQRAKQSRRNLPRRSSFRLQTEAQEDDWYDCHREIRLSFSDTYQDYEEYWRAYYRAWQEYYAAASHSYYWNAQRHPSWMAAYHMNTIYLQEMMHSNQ
Description: as §1, §2

[7] = target: T4, LIMA1 (UniProt Q9UHB6-4 1-760, limits assumed); experiment: as above
T4 construct: also called NP_001107018.1 (+1)
T4 sequence (Q9UHB6 other isoform, or with tags, fused parts or gaps limits assumed): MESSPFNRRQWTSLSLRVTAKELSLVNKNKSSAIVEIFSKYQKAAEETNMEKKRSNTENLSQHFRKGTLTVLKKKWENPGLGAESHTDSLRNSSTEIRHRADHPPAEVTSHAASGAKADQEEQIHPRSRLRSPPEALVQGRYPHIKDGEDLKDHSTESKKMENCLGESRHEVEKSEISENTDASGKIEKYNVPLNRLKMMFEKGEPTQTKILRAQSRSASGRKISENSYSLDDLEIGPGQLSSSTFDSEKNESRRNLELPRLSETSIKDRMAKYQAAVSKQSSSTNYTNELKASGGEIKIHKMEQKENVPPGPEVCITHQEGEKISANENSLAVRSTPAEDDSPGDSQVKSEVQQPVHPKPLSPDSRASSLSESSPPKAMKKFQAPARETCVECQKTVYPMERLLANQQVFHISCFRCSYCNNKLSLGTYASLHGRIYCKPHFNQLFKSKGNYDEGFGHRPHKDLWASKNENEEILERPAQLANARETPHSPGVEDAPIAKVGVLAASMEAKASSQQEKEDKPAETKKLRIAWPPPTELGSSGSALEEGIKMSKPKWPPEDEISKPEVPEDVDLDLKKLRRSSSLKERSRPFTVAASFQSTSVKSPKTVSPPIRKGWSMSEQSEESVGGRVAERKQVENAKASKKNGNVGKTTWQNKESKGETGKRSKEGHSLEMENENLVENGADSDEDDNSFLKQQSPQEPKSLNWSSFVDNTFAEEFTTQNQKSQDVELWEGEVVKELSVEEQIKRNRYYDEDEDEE
Description: as §1, §2

[8] = target: T5, LSM12 (human, UniProt Q3MHD2 2-195); experiment: co-IP, anti-FLAG, lysate of cells with N-FLAG B3GNT2; mass spectrometry
T5 construct: also called NP_689557.1
T5 sequence (Q3MHD2 2-195 limits assumed): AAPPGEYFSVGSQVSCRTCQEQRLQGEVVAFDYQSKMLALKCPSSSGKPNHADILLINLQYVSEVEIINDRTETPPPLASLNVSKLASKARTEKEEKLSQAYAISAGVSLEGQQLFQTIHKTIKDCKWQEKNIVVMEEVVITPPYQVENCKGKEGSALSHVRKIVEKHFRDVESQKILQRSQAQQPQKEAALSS
Description: as §1, §2

[9] = target: T6, DDX5 (human, UniProt P17844 1-614); experiment: as above
T6 construct: also called NP_001307526.1
T6 sequence (P17844 whole entry): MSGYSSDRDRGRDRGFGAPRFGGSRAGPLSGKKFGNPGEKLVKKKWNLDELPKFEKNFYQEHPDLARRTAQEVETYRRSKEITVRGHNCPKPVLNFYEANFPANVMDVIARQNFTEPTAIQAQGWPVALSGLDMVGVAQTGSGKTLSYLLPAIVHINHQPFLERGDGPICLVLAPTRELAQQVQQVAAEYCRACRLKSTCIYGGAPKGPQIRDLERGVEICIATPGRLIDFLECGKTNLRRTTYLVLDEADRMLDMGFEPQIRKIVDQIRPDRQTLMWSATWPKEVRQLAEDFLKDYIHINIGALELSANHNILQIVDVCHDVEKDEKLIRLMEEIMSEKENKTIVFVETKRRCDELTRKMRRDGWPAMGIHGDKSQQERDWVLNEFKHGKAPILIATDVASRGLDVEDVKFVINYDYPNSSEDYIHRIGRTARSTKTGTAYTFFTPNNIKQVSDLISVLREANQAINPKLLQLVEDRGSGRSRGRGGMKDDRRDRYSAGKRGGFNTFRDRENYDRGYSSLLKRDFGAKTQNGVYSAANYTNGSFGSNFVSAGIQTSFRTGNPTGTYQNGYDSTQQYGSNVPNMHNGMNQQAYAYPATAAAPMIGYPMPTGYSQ
Description: as §1, §2

Binder	co-IP mass spectrometry count [1]	co-IP mass spectrometry count [2]	co-IP mass spectrometry count [3]	co-IP mass spectrometry count [4]	co-IP mass spectrometry count [5]	co-IP mass spectrometry count [6]	co-IP mass spectrometry count [7]	co-IP mass spectrometry count [8]	co-IP mass spectrometry count [9]
N-terminal FLAG tagged B3GNT2 (enzyme, human, UniProt Q9NY97 1-397, looked up, Bait of the co-IP; pulled down with mouse anti-FLAG from cell lysate; also called N-FLAG B3GNT2; N-term FLAG; not shown: FLAG tag at the N-terminus) MSVGRRRIKLLGILMMANVFIYFIMEVSKSSSQEKNGKGEVIIPKEKFWKISTPPEAYWNREQEKLNRQYNPILSMLTNQTGEAGRLSNISHLNYCEPDLRVTSVVTGFNNLPDRFKDFLLYLRCRNYSLLIDQPDKCAKKPFLLLAIKSLTPHFARRQAIRESWGQESNAGNQTVVRVFLLGQTPPEDNHPDLSDMLKFESEKHQDILMWNYRDTFFNLSLKEVLFLRWVSTSCPDTEFVFKGDDDVFVNTHHILNYLNSLSKTKAKDLFIGDVIHNAGPHRDKKLKYYIPEVVYSGLYPPYAGGGGFLYSGHLALRLYHITDQVHLYPIDDVYTGMCLQKLGLVPEKHKGFRTFDIEEKNKNNICSYVDLMLVHSRKPQEMIDIWSQLQSAHLKC	6	13	15	6	2	0	4	–	–
N-terminal FLAG tagged B3GNT2 (enzyme, human, UniProt Q9NY97 1-397, looked up, Overexpressed in cells and pulled down from the lysate with mouse anti-FLAG antibody; also called N-FLAG B3GNT2; N-term FLAG; not shown: N-terminal FLAG tag) MSVGRRRIKLLGILMMANVFIYFIMEVSKSSSQEKNGKGEVIIPKEKFWKISTPPEAYWNREQEKLNRQYNPILSMLTNQTGEAGRLSNISHLNYCEPDLRVTSVVTGFNNLPDRFKDFLLYLRCRNYSLLIDQPDKCAKKPFLLLAIKSLTPHFARRQAIRESWGQESNAGNQTVVRVFLLGQTPPEDNHPDLSDMLKFESEKHQDILMWNYRDTFFNLSLKEVLFLRWVSTSCPDTEFVFKGDDDVFVNTHHILNYLNSLSKTKAKDLFIGDVIHNAGPHRDKKLKYYIPEVVYSGLYPPYAGGGGFLYSGHLALRLYHITDQVHLYPIDDVYTGMCLQKLGLVPEKHKGFRTFDIEEKNKNNICSYVDLMLVHSRKPQEMIDIWSQLQSAHLKC	–	–	–	–	–	–	–	4	16
